Test results from PMC9098222.

Biological target: PIK3R2/p85β (UniProt O00459)
Assay: anti-Myc IP, PIK3R2 immunoblot
Conditions: reference: Myc-IRS4 wild type; sites Y779

## IRS4 (insulin receptor substrate 4) (from UniProt O14654) Myc-IRS4 Y779F
  binding against the reference: weaker
